The target in experiment [1] is T1, mouse TIGIT on primary murine Tregs (mouse, UniProt P86176 29-249).
T1 construct: whole, on cells; also called Mouse Tregs
T1 sequence (looked up): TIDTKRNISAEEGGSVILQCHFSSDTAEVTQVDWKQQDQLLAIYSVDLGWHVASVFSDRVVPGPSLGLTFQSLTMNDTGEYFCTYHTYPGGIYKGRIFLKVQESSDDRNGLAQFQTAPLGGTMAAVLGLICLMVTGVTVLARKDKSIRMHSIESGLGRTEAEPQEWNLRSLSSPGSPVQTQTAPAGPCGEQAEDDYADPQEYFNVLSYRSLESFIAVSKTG
Briefly: flow cytometry on primary murine Tregs, average. (A flow cytometer gives signals particle by particle.)

The target in experiment [2] is T2, human TIGIT on the cell surface (human, UniProt Q495A1 22-244).
T2 construct: Expressed on engineered Jurkat cells or naturally on human primary CD8+ T cells (the cells are named under assay); also called Human TIGIT Jurkat; human TIGIT expressing Jurkat cells
T2 sequence: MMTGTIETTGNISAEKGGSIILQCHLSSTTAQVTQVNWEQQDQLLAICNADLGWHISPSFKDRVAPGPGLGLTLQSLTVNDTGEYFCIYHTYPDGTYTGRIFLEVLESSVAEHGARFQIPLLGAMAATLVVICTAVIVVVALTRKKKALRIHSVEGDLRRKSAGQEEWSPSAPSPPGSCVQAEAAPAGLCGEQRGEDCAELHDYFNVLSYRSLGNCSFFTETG
Briefly: flow cytometry on human primary CD8+ T cells.

The target of experiment [3] is T3, cynomolgus monkey TIGIT on the cell surface (cynomolgus monkey).
T3 construct: Expressed on engineered Jurkat cells or naturally on cynomolgus monkey primary CD8+ T cells (the cells are named under assay); also called Cynomolgus Monkey TIGIT Jurkat; Cynomolgus Monkey CD8
In words: flow cytometry on cynomolgus monkey primary CD8+ T cells.

Experiment [4] concerns the target T4, recombinant monomeric human TIGIT-His (human, UniProt Q495A1 22-141).
T4 construct: also called hTIGIT; not shown: His tag
T4 sequence: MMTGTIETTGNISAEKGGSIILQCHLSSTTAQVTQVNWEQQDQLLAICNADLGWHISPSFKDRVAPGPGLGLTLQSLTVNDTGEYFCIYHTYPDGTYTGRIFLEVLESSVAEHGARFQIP
In words: BLI (Octet QKe), SEC1 on AMC sensor, human TIGIT-His 33.8 to 1.25 nM, 1:1 global fit.

Experiment [5] addresses T5, recombinant monomeric cynomolgus monkey TIGIT-His (cynomolgus monkey).
T5 construct: also called Cyno TIGIT His; cTIGIT; not shown: His tag
Briefly: BLI (Octet QKe), SEC1 on AMC sensor, cynomolgus monkey TIGIT-His in solution. Background: BLI is a label-free optical method that tracks binding on a fibre tip over time.

Experiment [6] has as its target T6, recombinant monomeric mouse TIGIT-His (SEQ ID NO: 3) (mouse, UniProt P86176 29-148).
T6 construct: also called mTIGIT; not shown: His tag
T6 sequence: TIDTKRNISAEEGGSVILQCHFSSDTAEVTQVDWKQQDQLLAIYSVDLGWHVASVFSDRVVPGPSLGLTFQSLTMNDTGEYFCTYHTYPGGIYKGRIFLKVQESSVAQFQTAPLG
In words: BLI (Octet QKe), SEC1 on AMC sensor, mouse TIGIT-His 33 to 1.22 nM, 1:1 global fit.

The values below come from patent publication US20170340735A1 (published 2017).

T3 sequence (chain, as listed by the source limits assumed): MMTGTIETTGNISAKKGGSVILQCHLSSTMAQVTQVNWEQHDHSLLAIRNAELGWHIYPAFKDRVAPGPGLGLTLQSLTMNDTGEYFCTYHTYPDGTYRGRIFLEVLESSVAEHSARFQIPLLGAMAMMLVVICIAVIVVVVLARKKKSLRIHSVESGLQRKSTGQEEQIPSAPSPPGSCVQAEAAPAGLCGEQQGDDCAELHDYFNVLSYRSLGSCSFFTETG
T5 sequence (chain, as listed by the source limits assumed): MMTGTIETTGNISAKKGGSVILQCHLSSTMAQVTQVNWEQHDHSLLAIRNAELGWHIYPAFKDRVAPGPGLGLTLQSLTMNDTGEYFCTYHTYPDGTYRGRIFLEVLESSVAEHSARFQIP

B1: SEC1 human IgG4 S228P (antibody)
heavy: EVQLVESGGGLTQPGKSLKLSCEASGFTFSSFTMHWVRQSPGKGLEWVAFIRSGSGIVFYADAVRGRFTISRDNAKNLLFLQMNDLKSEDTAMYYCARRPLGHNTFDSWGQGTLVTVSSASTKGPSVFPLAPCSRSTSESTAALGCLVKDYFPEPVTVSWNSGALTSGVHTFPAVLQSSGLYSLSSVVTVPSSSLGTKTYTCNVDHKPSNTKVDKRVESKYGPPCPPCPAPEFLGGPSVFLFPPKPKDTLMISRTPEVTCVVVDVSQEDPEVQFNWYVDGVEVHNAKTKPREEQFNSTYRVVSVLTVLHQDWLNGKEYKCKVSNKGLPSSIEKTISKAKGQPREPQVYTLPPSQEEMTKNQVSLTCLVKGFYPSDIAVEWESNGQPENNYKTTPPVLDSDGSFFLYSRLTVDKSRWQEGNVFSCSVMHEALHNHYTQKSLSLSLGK
light: DIVMTQSPSSLAVSPGEKVTMTCKSSQSLYYSGVKENLLAWYQQKPGQSPKLLIYYASIRFTGVPDRFTGSGSGTDYTLTITSVQAEDMGQYFCQQGINNPLTFGDGTKLEIKRTVAAPSVFIFPPSDEQLKSGTASVVCLLNNFYPREAKVQWKVDNALQSGNSQESVTEQDSKDSTYSLSSTLTLSKADYEKHKVYACEVTHQGLSSPVTKSFNRGEC
notes: Chimeric: hamster variable regions, human IgG4 S228P and human kappa constant regions; also called SEC1 (IgG4 S228P)
Broadly, the Kd is the free concentration of one partner at which half of the binding sites on the other are occupied at equilibrium, for simple one-to-one binding. Regarding B1, the values for the dissociation constant (Kd) in experiment [1] and in experiment [2] were 0.41 nM and 3.6 nM, respectively. Further, the binding result in experiment [3] is on record as “no binding”.

B2: SEC1 mouse IgG2a N297A (antibody)
heavy: EVQLVESGGGLTQPGKSLKLSCEASGFTFSSFTMHWVRQSPGKGLEWVAFIRSGSGIVFYADAVRGRFTISRDNAKNLLFLQMNDLKSEDTAMYYCARRPLGHNTFDSWGQGTLVTVSSAKTTAPSVYPLAPVCGDTTGSSVTLGCLVKGYFPEPVTLTWNSGSLSSGVHTFPAVLQSDLYTLSSSVTVTSSTWPSQSITCNVAHPASSTKVDKKIEPRGPTIKPCPPCKCPAPNLLGGPSVFIFPPKIKDVLMISLSPIVTCVVVDVSEDDPDVQISWFVNNVEVHTAQTQTHREDYASTLRVVSALPIQHQDWMSGKEFKCKVNNKDLPAPIERTISKPKGSVRAPQVYVLPPPEEEMTKKQVTLTCMVTDFMPEDIYVEWTNNGKTELNYKNTEPVLDSDGSYFMYSKLRVEKKNWVERNSYSCSVVHEGLHNHHTTKSFSRTPGK
light: DIVMTQSPSSLAVSPGEKVTMTCKSSQSLYYSGVKENLLAWYQQKPGQSPKLLIYYASIRFTGVPDRFTGSGSGTDYTLTITSVQAEDMGQYFCQQGINNPLTFGDGTKLEIKRADAAPTVSIFPPSSEQLTSGGASVVCFLNNFYPKDINVKWKIDGSERQNGVLNSWTDQDSKDSTYSMSSTLTLTKDEYERHNSYTCEATHKTSTSPIVKSFNRNEC
notes: also called SEC1 IgG2a N297A
In general, koff refers to the rate constant with which the complex falls apart. In general, kon refers to the rate constant with which the complex forms. In the case of B2, in experiment [4], the Kd came out at 4.7 nM, the koff turned out to be 0.0079 s⁻¹ and the kon is 1.7e+06 M⁻¹ s⁻¹. Besides, the binding result in experiment [5] is on record as “no binding (tested: 302.8 to 0.42 nM)”. Further, in experiment [6], the Kd was 0.32 nM, the koff was 0.0006 s⁻¹ and the kon worked out at 1.9e+06 M⁻¹ s⁻¹.
